Assay results as given in patent US20160237156A1.

What was measured:
CXCR4 (human) [1] = biological target: CXCR4 (human) (UniProt P61073); experiment: flow cytometry on Jurkat cells, competition with fluorescein conjugated 12G5 (66.6 nM) as competitor
[2] = biological target: SNAP-tag-CXCR4 (Tag-lite labeled CXCR4 cells, Cisbio Bioassays) (UniProt P61073); experiment: Tag-lite HTRF competition with 50 nM fluorescent SDF-1, Cheng-Prusoff
CXCR4 (human) [3] = biological target: CXCR4 (human) (UniProt P61073); experiment: cell-based or functional assay
CXCR4 (human) [4] = biological target: CXCR4 (human) (UniProt P61073); experiment: flow cytometry on CXCR4 transfected CHO cells, 1 µg/ml antibody
[5] = biological target: SNAP-tag-CXCR4 (Tag-lite labeled CXCR4 cells, Cisbio Bioassays) (UniProt P61073); experiment: Tag-lite HTRF competition with 50 nM fluorescent SDF-1 on Tag-lite labeled CXCR4 cells

Sequence of CXCR4 (human) (P61073 whole entry): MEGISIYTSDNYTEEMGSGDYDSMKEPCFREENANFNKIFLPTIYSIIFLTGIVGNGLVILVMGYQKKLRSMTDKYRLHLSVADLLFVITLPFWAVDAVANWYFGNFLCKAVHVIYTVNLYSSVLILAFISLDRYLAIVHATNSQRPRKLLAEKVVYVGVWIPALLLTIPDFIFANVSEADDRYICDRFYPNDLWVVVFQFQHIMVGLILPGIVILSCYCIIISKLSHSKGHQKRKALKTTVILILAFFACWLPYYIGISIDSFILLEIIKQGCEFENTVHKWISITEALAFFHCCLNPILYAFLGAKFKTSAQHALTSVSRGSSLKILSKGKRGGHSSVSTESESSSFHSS
Sequence of SNAP-tag-CXCR4 (Tag-lite labeled CXCR4 cells, Cisbio Bioassays) (P61073 whole entry): as above

- IC50 (CXCR4 (human) [1]): 39.3 nM
- Ki [2]: 2.12 nM
- inhibition of SDF-1 induced migration of Ramos cells, EC50 (CXCR4 (human) [3]): 8.5 nM
- flow cytometry peak shift (CXCR4 (human) [4]): 73.8%
- IC50 [5]: 9.58 nM
B1: BLV1H12-beta BCCX2 HC 1 IgG (antibody, V domains shown)
VH: QVQLRESGPSLVKPSQTLSLTCTASGFSLSDKAVGWVRQAPGKALEWLGSIDTGGNTGYNPGLKSRLSITKDNSKSQVSLSVSSVTTEDSATYYCTSVHQETKKYQSYRKCRGGRRWCYQKSYTYNYEWHVDVWGQGLLVTVSS
VL: QAVLNQPSSVSGSLGQRVSITCSGSSSNVGNGYVSWYQLIPGSAPRTLIYGDTSRASGVPDRFSGSRSGNTATLTISSLQAEDEADYFCASAEDSSSNAVFGSGTTLTVLG
